According to patent US20210388087A1 (Chugai, published 2021):
Positions count from the first letter of the chain named. Names and notes keep the numbering of the source. One block for each binder: values may come before it.

Biological target: T1, Human CD137 ECD (human)
T1 construct: also called 4-1BB
Test: single mutant vs template dBBDu183H

T1 sequence (chain, as listed by the source limits assumed): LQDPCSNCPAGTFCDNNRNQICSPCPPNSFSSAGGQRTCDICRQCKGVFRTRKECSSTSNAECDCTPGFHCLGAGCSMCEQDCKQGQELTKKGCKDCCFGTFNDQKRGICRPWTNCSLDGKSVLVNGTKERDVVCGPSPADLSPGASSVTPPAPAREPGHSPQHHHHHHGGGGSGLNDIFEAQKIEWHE

B3: H183/L072 VH G26W (antibody, name in Kabat numbering, V domains shown)
VH: QVQLVESGGGLVQPGRSLRLSCAASWFTFSNAWMHWVRQAPGKGLEWVAQIKDKGNAYAAYYAPSVKGRFTISRDDSKNSIYLQMNSLKTEDTAVYYCHYVHYASASTVLPAFGVDAWGQGTTVTVSS
VL: DIVMTQSPLSLPVTPGEPASISCQASQELVHMNRNTYLHWYQQKPGQAPRLLIYKVSNRFPGVPDRFSGSGSGTDFTLKISRVEAEDVGVYYCAQGTSVPFTFGQGTKLEIK
fold change of affinity: 0.3 fold

B5: H183/L072 VH H35Y (antibody, name in Kabat numbering, V domains shown)
VH: B3 VH with W26G, H35Y
VL: B3 VL
fold change of affinity: 3.9 fold

B7: H183/L072 VH H35F (antibody, name in Kabat numbering, V domains shown)
VH: B3 VH with W26G, H35F
VL: B3 VL
fold change of affinity: 4.3 fold

B8: H183/L072 VH G52cS (antibody, name in Kabat numbering, V domains shown)
VH: B3 VH with W26G, G55S
VL: B3 VL
fold change of affinity: 1.3 fold

B9: H183/L072 VH G65I (antibody, name in Kabat numbering, V domains shown)
VH: B3 VH with W26G, G68I
VL: B3 VL
fold change of affinity: 1.3 fold

B10: H183/L072 VH G65L (antibody, name in Kabat numbering, V domains shown)
VH: B3 VH with W26G, G68L
VL: B3 VL
fold change of affinity: 1.3 fold

B12: H183/L072 VH G52cW (antibody, name in Kabat numbering, V domains shown)
VH: B3 VH with W26G, G55W
VL: B3 VL
fold change of affinity: 2 fold

B14: H183/L072 VH G100hM (antibody, name in Kabat numbering, V domains shown)
VH: B3 VH with W26G, G114M
VL: B3 VL
fold change of affinity: 0 fold

B17: H183/L072 VH G52cA (antibody, name in Kabat numbering, V domains shown)
VH: B3 VH with W26G, G55A
VL: B3 VL
fold change of affinity: 0.8 fold

B24: H183/L072 VH H96M (antibody, name in Kabat numbering, V domains shown)
VH: B3 VH with W26G, H102M
VL: B3 VL
fold change of affinity: 1.4 fold

B26: H183/L072 VH H93M (antibody, name in Kabat numbering, V domains shown)
VH: B3 VH with W26G, H99M
VL: B3 VL
fold change of affinity: 0 fold

B28: H183/L072 VH H93A (antibody, name in Kabat numbering, V domains shown)
VH: B3 VH with W26G, H99A
VL: B3 VL
fold change of affinity: 0 fold

B31: H183/L072 VH H96A (antibody, name in Kabat numbering, V domains shown)
VH: B3 VH with W26G, H102A
VL: B3 VL
fold change of affinity: 0 fold

B33: H183/L072 VH H93L (antibody, name in Kabat numbering, V domains shown)
VH: B3 VH with W26G, H99L
VL: B3 VL
fold change of affinity: 0 fold

B36: H183/L072 VH G65M (antibody, name in Kabat numbering, V domains shown)
VH: B3 VH with W26G, G68M
VL: B3 VL
fold change of affinity: 1.2 fold

B39: H183/L072 VH H96P (antibody, name in Kabat numbering, V domains shown)
VH: B3 VH with W26G, H102P
VL: B3 VL
fold change of affinity: 0 fold

B40: H183/L072 VH G52cD (antibody, name in Kabat numbering, V domains shown)
VH: B3 VH with W26G, G55D
VL: B3 VL
fold change of affinity: 0.6 fold

B42: H183/L072 VH H93I (antibody, name in Kabat numbering, V domains shown)
VH: B3 VH with W26G, H99I
VL: B3 VL
fold change of affinity: 0 fold

B44: H183/L072 VH H93P (antibody, name in Kabat numbering, V domains shown)
VH: B3 VH with W26G, H99P
VL: B3 VL
fold change of affinity: 0 fold

B47: H183/L072 VH G52cL (antibody, name in Kabat numbering, V domains shown)
VH: B3 VH with W26G, G55L
VL: B3 VL
fold change of affinity: 0.8 fold

Other lines, results leading:

fold change of affinity: 0.3 fold
B1: H183/L072 VH G26R (antibody, name in Kabat numbering, V domains shown)
VH: B3 VH with W26R
VL: B3 VL

fold change of affinity: 0.7 fold
B2: H183/L072 VH G52cV (antibody, name in Kabat numbering, V domains shown)
VH: B3 VH with W26G, G55V
VL: B3 VL

fold change of affinity: 0.4 fold
B4: H183/L072 VH G26S (antibody, name in Kabat numbering, V domains shown)
VH: B3 VH with W26S
VL: B3 VL

fold change of affinity: 0.4 fold
B6: H183/L072 VH G52cP (antibody, name in Kabat numbering, V domains shown)
VH: B3 VH with W26G, G55P
VL: B3 VL

fold change of affinity: 1.7 fold
B11: H183/L072 VH G52cF (antibody, name in Kabat numbering, V domains shown)
VH: B3 VH with W26G, G55F
VL: B3 VL

fold change of affinity: 0 fold
B13: H183/L072 VH G100hI (antibody, name in Kabat numbering, V domains shown)
VH: B3 VH with W26G, G114I
VL: B3 VL

fold change of affinity: 0 fold
B15: H183/L072 VH G100hA (antibody, name in Kabat numbering, V domains shown)
VH: B3 VH with W26G, G114A
VL: B3 VL

fold change of affinity: 0.8 fold
B16: H183/L072 VH G52cE (antibody, name in Kabat numbering, V domains shown)
VH: B3 VH with W26G, G55E
VL: B3 VL

fold change of affinity: 1.3 fold
B18: H183/L072 VH G52cH (antibody, name in Kabat numbering, V domains shown)
VH: B3 VH with W26G, G55H
VL: B3 VL

fold change of affinity: 0.5 fold
B19: H183/L072 VH H35T (antibody, name in Kabat numbering, V domains shown)
VH: B3 VH with W26G, H35T
VL: B3 VL

fold change of affinity: 1.2 fold
B20: H183/L072 VH G65A (antibody, name in Kabat numbering, V domains shown)
VH: B3 VH with W26G, G68A
VL: B3 VL

fold change of affinity: 0 fold
B21: H183/L072 VH G100hL (antibody, name in Kabat numbering, V domains shown)
VH: B3 VH with W26G, G114L
VL: B3 VL

fold change of affinity: 0.2 fold
B22: H183/L072 VH G52cK (antibody, name in Kabat numbering, V domains shown)
VH: B3 VH with W26G, G55K
VL: B3 VL

fold change of affinity: 1.3 fold
B23: H183/L072 VH G65P (antibody, name in Kabat numbering, V domains shown)
VH: B3 VH with W26G, G68P
VL: B3 VL

fold change of affinity: 0.7 fold
B25: H183/L072 VH G52cI (antibody, name in Kabat numbering, V domains shown)
VH: B3 VH with W26G, G55I
VL: B3 VL

fold change of affinity: 0.3 fold
B27: H183/L072 VH G26Y (antibody, name in Kabat numbering, V domains shown)
VH: B3 VH with W26Y
VL: B3 VL

fold change of affinity: 0.5 fold
B29: H183/L072 VH H96I (antibody, name in Kabat numbering, V domains shown)
VH: B3 VH with W26G, H102I
VL: B3 VL

fold change of affinity: 0.9 fold
B30: H183/L072 VH G52cN (antibody, name in Kabat numbering, V domains shown)
VH: B3 VH with W26G, G55N
VL: B3 VL

fold change of affinity: 0.2 fold
B32: H183/L072 VH G52cR (antibody, name in Kabat numbering, V domains shown)
VH: B3 VH with W26G, G55R
VL: B3 VL

fold change of affinity: 0.6 fold
B34: H183/L072 VH G52cM (antibody, name in Kabat numbering, V domains shown)
VH: B3 VH with W26G, G55M
VL: B3 VL

fold change of affinity: 0.5 fold
B35: H183/L072 VH H35V (antibody, name in Kabat numbering, V domains shown)
VH: B3 VH with W26G, H35V
VL: B3 VL

fold change of affinity: 0.4 fold
B37: H183/L072 VH H35N (antibody, name in Kabat numbering, V domains shown)
VH: B3 VH with W26G, H35N
VL: B3 VL

fold change of affinity: 2 fold
B38: H183/L072 VH G52cY (antibody, name in Kabat numbering, V domains shown)
VH: B3 VH with W26G, G55Y
VL: B3 VL

fold change of affinity: 0.7 fold
B41: H183/L072 VH G52cQ (antibody, name in Kabat numbering, V domains shown)
VH: B3 VH with W26G, G55Q
VL: B3 VL

fold change of affinity: 0.8 fold
B43: H183/L072 VH H96L (antibody, name in Kabat numbering, V domains shown)
VH: B3 VH with W26G, H102L
VL: B3 VL

fold change of affinity: 1 fold
B45: H183/L072 VH G52cT (antibody, name in Kabat numbering, V domains shown)
VH: B3 VH with W26G, G55T
VL: B3 VL

fold change of affinity: 0.5 fold
B46: H183/L072 VH G26T (antibody, name in Kabat numbering, V domains shown)
VH: B3 VH with W26T
VL: B3 VL
